Laboratory results from patent publication US20230050380A1 (CHIOME BIOSCIENCE, published 2023).

T1: full-length hCDCP1 with N-terminal c-Myc tag (expression vector GS01), on Ba/F3-hCDCP1 cells or … (human, UniProt Q9H5V8 30-836)
T1 construct: also called human CDCP1; hCDCP1 forced expression cells
T1 sequence: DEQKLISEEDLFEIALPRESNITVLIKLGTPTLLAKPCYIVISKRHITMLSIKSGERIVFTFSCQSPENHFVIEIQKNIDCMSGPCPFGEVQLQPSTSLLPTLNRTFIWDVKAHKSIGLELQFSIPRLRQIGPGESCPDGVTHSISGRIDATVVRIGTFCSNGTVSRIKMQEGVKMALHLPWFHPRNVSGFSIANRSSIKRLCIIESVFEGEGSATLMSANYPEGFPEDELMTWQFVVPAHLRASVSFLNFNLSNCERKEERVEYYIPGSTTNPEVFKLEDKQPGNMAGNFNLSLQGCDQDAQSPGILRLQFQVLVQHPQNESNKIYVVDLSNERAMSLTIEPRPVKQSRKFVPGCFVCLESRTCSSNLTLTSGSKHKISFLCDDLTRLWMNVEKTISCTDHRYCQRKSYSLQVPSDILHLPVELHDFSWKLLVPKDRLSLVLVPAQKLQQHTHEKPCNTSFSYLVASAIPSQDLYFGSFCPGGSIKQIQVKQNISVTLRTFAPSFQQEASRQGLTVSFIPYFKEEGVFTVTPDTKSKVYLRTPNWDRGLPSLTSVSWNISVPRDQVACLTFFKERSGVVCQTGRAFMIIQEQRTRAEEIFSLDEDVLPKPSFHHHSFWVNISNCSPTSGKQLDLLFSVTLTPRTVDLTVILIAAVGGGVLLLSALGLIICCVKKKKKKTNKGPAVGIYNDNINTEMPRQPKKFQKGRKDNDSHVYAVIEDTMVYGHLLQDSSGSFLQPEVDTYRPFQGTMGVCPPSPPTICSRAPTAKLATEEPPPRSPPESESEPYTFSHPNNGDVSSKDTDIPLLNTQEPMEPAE


Target: T1, full-length hCDCP1 with N-terminal …
Test: flow cytometry on Ba/F3-hCDCP1 cells

Binder | binding result
h12A041VH2/VL (antibody, human IgG1, kappa, V domains shown, humanized antibody, human IgG1/kappa constant regions) VH: QVTLRESGPALVKPTQTLTLTCTFSGFSLSTSGMGVSWIRQPPGKGLEWLAHIYWDDDKRYNPSLKSRLTISKDTSKNQVVLTMTNMDPVDTATYYCARSGSYYGSSLDSWGQGTTVTVSS VL: DIVMTQSPLSLPVTPGEPASISCRSSQSIVHSSGNTYLEWYLQKPGQSPQLLIYKVSNRFSGVPDRFSGSGSGTDFTLKISRVEAEDVGVYYCFQGSHVPWTFGGGTKVEIKR | binds
h12A041VH2/VLA (antibody, human IgG1, kappa, V domains shown, humanized antibody, human IgG1/kappa constant regions) VH: QVTLRESGPALVKPTQTLTLTCTFSGFSLSTSGMGVSWIRQPPGKGLEWLAHIYWDDDKRYNPSLKSRLTISKDTSKNQVVLTMTNMDPVDTATYYCARSGSYYGSSLDSWGQGTTVTVSS VL: DIVMTQSPLSLPVTPGEPASISCRSSQSIVYSSGNTYLEWYLQKPGQSPQLLIYKVSNRFSGVPDRFSGSGSGTDFTLKISRVEAEDVGVYYCFQGSHVPWTFGGGTKVEIKR | binds
h12A041VH2/VLB (antibody, human IgG1, kappa, V domains shown, humanized antibody, human IgG1/kappa constant regions) VH: QVTLRESGPALVKPTQTLTLTCTFSGFSLSTSGMGVSWIRQPPGKGLEWLAHIYWDDDKRYNPSLKSRLTISKDTSKNQVVLTMTNMDPVDTATYYCARSGSYYGSSLDSWGQGTTVTVSS VL: DIVMTQSPLSLPVTPGEPASISCRSSQNIVHSDGNTYLEWYLQKPGQSPQLLIYKVSNRFSGVPDRFSGSGSGTDFTLKISRVEAEDVGVYYCFQGSHVPWTFGGGTKVEIKR | binds
h12A041VH2A/VL (antibody, human IgG1, kappa, V domains shown, humanized antibody, human IgG1/kappa constant regions) VH: QVTLRESGPALVKPTQTLTLTCTFSGFSLSTFGMGVSWIRQPPGKGLEWLAHIYWDDDKRYNPSLKSRLTISKDTSKNQVVLTMTNMDPVDTATYYCARSGSYYGSSLDSWGQGTTVTVSS VL: DIVMTQSPLSLPVTPGEPASISCRSSQSIVHSSGNTYLEWYLQKPGQSPQLLIYKVSNRFSGVPDRFSGSGSGTDFTLKISRVEAEDVGVYYCFQGSHVPWTFGGGTKVEIKR | binds
h12A041VH2A/VLA (antibody, human IgG1, kappa, V domains shown, humanized antibody, human IgG1/kappa constant regions) VH: QVTLRESGPALVKPTQTLTLTCTFSGFSLSTFGMGVSWIRQPPGKGLEWLAHIYWDDDKRYNPSLKSRLTISKDTSKNQVVLTMTNMDPVDTATYYCARSGSYYGSSLDSWGQGTTVTVSS VL: DIVMTQSPLSLPVTPGEPASISCRSSQSIVYSSGNTYLEWYLQKPGQSPQLLIYKVSNRFSGVPDRFSGSGSGTDFTLKISRVEAEDVGVYYCFQGSHVPWTFGGGTKVEIKR | binds
h12A041VH2A/VLB (antibody, human IgG1, kappa, V domains shown, humanized antibody, human IgG1/kappa constant regions) VH: QVTLRESGPALVKPTQTLTLTCTFSGFSLSTFGMGVSWIRQPPGKGLEWLAHIYWDDDKRYNPSLKSRLTISKDTSKNQVVLTMTNMDPVDTATYYCARSGSYYGSSLDSWGQGTTVTVSS VL: DIVMTQSPLSLPVTPGEPASISCRSSQNIVHSDGNTYLEWYLQKPGQSPQLLIYKVSNRFSGVPDRFSGSGSGTDFTLKISRVEAEDVGVYYCFQGSHVPWTFGGGTKVEIKR | binds
h14A043VH1/VL1 (antibody, human IgG1, kappa, humanized antibody, human IgG1/kappa constant regions; also called h14A043VH1/VL1-biotin (biotinylated form)) heavy: not shown light: EIVLTQSPATLSLSPGERATLSCSASSSVSYLYWYQQKPGQAPRPWIYLTSNLASGVPARFSGSGSGTDFTLTISSLEPEDFAVYYCQQWSSNPFTFGGGTKVEIKRTVAAPSVFIFPPSDEQLKSGTASVVCLLNNFYPREAKVQWKVDNALQSGNSQESVTEQDSKDSTYSLSSTLTLSKADYEKHKVYACEVTHQGLSSPVTKSFNRGEC | binds
h14A043VH1/VL2 (antibody, human IgG1, kappa, V domains shown, humanized antibody, human IgG1/kappa constant regions; also called h14A043VH1/VL2-biotin (biotinylated form)) VH: QVQLVQSGAEVKKPGSSVKVSCKASGFNIKDYYMNWVRQAPGQGLEWIGWIDPENANTIYDPKFQGRVTITADESTSTAYMELSSLRSEDTAVYYCYGSSYRFTYWGQGTLVTVSS VL: EIVLTQSPATLSLSPGERATLSCSASSSVSYLYWYQQKPGQAPRPWIYLTSNLASGVPARFSGSGSGTDYTLTISSLEPEDFAVYYCQQWSSNPFTFGGGTKVEIKR | binds
h14A043VH1/VL3 (antibody, human IgG1, kappa, humanized antibody, human IgG1/kappa constant regions; also called h14A043VH1/VL3-biotin (biotinylated form)) heavy: not shown light: EIVLIQSPATLSLSPGERATLSCSASSSVSYLYWYQQKPGQAPRPWIYLTSNLASGVPARFSGSGSGTDFTLTISSLEPEDFAVYYCQQWSSNPFTFGGGTKVEIKRTVAAPSVFIFPPSDEQLKSGTASVVCLLNNFYPREAKVQWKVDNALQSGNSQESVTEQDSKDSTYSLSSTLTLSKADYEKHKVYACEVTHQGLSSPVTKSFNRGEC | binds
h14A043VH2/VL1 (antibody, human IgG1, kappa, humanized antibody, human IgG1/kappa constant regions; also called h14A043VH2/VL1-biotin (biotinylated form)) heavy: not shown light: EIVLTQSPATLSLSPGERATLSCSASSSVSYLYWYQQKPGQAPRPWIYLTSNLASGVPARFSGSGSGTDFTLTISSLEPEDFAVYYCQQWSSNPFTFGGGTKVEIKRTVAAPSVFIFPPSDEQLKSGTASVVCLLNNFYPREAKVQWKVDNALQSGNSQESVTEQDSKDSTYSLSSTLTLSKADYEKHKVYACEVTHQGLSSPVTKSFNRGEC | binds
h14A043VH2/VL2 (antibody, human IgG1, kappa, V domains shown, humanized antibody, human IgG1/kappa constant regions) VH: QVQLVQSGAEVKKPGSSVKVSCKASGFNIKDYYMNWVRQAPGQGLEWIGWIDPENANTIYDPKFQGRATITADESTSTAYMELSSLRSEDTAVYYCYGSSYRFTYWGQGTLVTVSS VL: EIVLTQSPATLSLSPGERATLSCSASSSVSYLYWYQQKPGQAPRPWIYLTSNLASGVPARFSGSGSGTDYTLTISSLEPEDFAVYYCQQWSSNPFTFGGGTKVEIKR | binds
h14A043VH2/VL3 (antibody, human IgG1, kappa, humanized antibody, human IgG1/kappa constant regions) heavy: not shown light: EIVLIQSPATLSLSPGERATLSCSASSSVSYLYWYQQKPGQAPRPWIYLTSNLASGVPARFSGSGSGTDFTLTISSLEPEDFAVYYCQQWSSNPFTFGGGTKVEIKRTVAAPSVFIFPPSDEQLKSGTASVVCLLNNFYPREAKVQWKVDNALQSGNSQESVTEQDSKDSTYSLSSTLTLSKADYEKHKVYACEVTHQGLSSPVTKSFNRGEC | binds
h14A063VH2/VL1 (antibody, human IgG1, kappa, humanized antibody, human IgG1/kappa constant regions) heavy: not shown light: EIVLTQSPATLSLSPGERATLSCRASESVDSYGNSFMHWYQQKPGQAPRLLIFLASNLESGVPARFSGSGSRTDFTLTISSLEPEDFAVYYCQQNNEDPWTFGGGTKVEIKRTVAAPSVFIFPPSDEQLKSGTASVVCLLNNFYPREAKVQWKVDNALQSGNSQESVTEQDSKDSTYSLSSTLTLSKADYEKHKVYACEVTHQGLSSPVTKSFNRGEC | binds
h14A063VH2/VL2 (antibody, human IgG1, kappa, humanized antibody, human IgG1/kappa constant regions) heavy: not shown light: EIVLTQSPATLSLSPGERATLSCRASESVDSYGNSFMHWYQQKPGQAPRLLIFLASNLESGVPARFSGSGSGTDFTLTISSLEPEDFAVYYCQQNNEDPWTFGGGTKVEIKRTVAAPSVFIFPPSDEQLKSGTASVVCLLNNFYPREAKVQWKVDNALQSGNSQESVTEQDSKDSTYSLSSTLTLSKADYEKHKVYACEVTHQGLSSPVTKSFNRGEC | binds
h14A063VH3/VL1 (antibody, human IgG1, kappa, humanized antibody, human IgG1/kappa constant regions) heavy: not shown light: EIVLTQSPATLSLSPGERATLSCRASESVDSYGNSFMHWYQQKPGQAPRLLIFLASNLESGVPARFSGSGSRTDFTLTISSLEPEDFAVYYCQQNNEDPWTFGGGTKVEIKRTVAAPSVFIFPPSDEQLKSGTASVVCLLNNFYPREAKVQWKVDNALQSGNSQESVTEQDSKDSTYSLSSTLTLSKADYEKHKVYACEVTHQGLSSPVTKSFNRGEC | binds
h14A063VH3/VL2 (antibody, human IgG1, kappa, humanized antibody, human IgG1/kappa constant regions) heavy: not shown light: EIVLTQSPATLSLSPGERATLSCRASESVDSYGNSFMHWYQQKPGQAPRLLIFLASNLESGVPARFSGSGSGTDFTLTISSLEPEDFAVYYCQQNNEDPWTFGGGTKVEIKRTVAAPSVFIFPPSDEQLKSGTASVVCLLNNFYPREAKVQWKVDNALQSGNSQESVTEQDSKDSTYSLSSTLTLSKADYEKHKVYACEVTHQGLSSPVTKSFNRGEC | binds
